# Test results as given in IntAct's records for PubMed 17405859.
# B1: Neuropilin-1 (Rattus norvegicus (Rat)), Q9QWJ9 (parent)
# chain: MERGLPLLCATLALALALAGAFRSDKCGGTIKIENPGYLTSPGYPHSYHPSEKCEWLIQAPEPYQRIMINFNPHFDLEDRDCKYDYVEVIDGENEGGRLWGKFCGKIAPSPVVSSGPFLFIKFVSDYETHGAGFSIRYEIFKRGPECSQNYTAPTGVIKSPGFPEKYPNSLECTYIIFAPKMSEIILEFESFDLEQDSNPPGGVFCRYDRLEIWDGFPEVGPHIGRYCGQKTPGRIRSSSGILSMVFYTDSAIAKEGFSANYSVLQSSISEDFKCMEALGMESGEIHSDQITASSQYGTNWSVERSRLNYPENGWTPGEDSYREWIQVDLGLLRFVTAVGTQGAISKETKKKYYVKTYRVDISSNGEDWITLKEGNKAIIFQGNTNPTDVVFGVFPKPLITRFVRIKPASWETGISMRFEVYGCKITDYPCSGMLGMVSGLISDSQITASNQGDRNWMPENIRLVTSRTGWALPPSPHPYINEWLQVDLGDEKIVRGVIIQGGKHRENKVFMRKFKIAYSNNGSDWKMIMDDSKRKAKSFEGNNNYDTPELRAFTPLSTRFIRIYPERATHSGLGLRMELLGCEVEVPTAGPTTPNGNPVDECDDDQANCHSGTGDDFQLTGGTTVLATEKPTIIDSTIQSEFPTYGFNCEFGWGSHKTFCHWEHDSHAQLRWRVLTSKTGPIQDHTGDGNFIYSQADENQKGKVARLVSPVVYSQSSAHCMTFWYHMSGSHVGTLRVKLHYQKPEEYDQLVWMVVGHQGDHWKEGRVLLHKSLKLYQVIFEGEIGKGNLGGIAVDDISINNHIPQEDCAKPTDLDKKNTEIKIDETGSTPGYEEGKGDKNISRKPGNVLKTLDPILITIIAMSALGVLLGAVCGVVLYCACWHNGMSERNLSALENYNFELVDGVKLKKDKLNPQSNYSEA
# Variants of: B1
# Details: with vegfa_human VEGFA
row,effect of a mutation on the interaction,Variant
1,disrupting interaction strength,S346A
2,disrupting interaction strength,T349A
3,disrupting interaction strength,E348A
